Assay results reported in the domain aggregation screens of Martell et al. (2025).

Assay: soluble fraction after stress (log2 fold change); higher = more stays soluble; pooled small domains, quantitative proteomics
Conditions: stress: 50 degC
Outline: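 Each library was heated to 50°C as a stress step. The libraries, made up of small protein domains, were pooled and analysed at high throughput by quantitative proteomics. The reported value is the base-two logarithm of the fold change in each protein's soluble amount after stress, taken as a measure of aggregation propensity. The higher the value, the more protein stays in solution.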

| Sequence | soluble fraction (log2) |
| --- | --- |
| HMSPIKAGDLVKITGTKYYRGQTIPSWVKAKNWFVHSVSGDRAVINKSEDGKNAIMSPVKVSNLALVT | -0.0334 |
| HMDEQVETLKNLISELPKEQLEVLVMRHYEDLSFKEISEKTGVSINTALGRMRYALINIRKLMKENN | -0.223 |
| HMIAPQISSGKVNTKELNVRSGPATTFGIVKKLPLNAMVGIFEEKNGWFRIATGQWVSKTYVDL | -1.5 |
| HMTTVTVGSKVRVKAGATFSDGAKPFAEVYNTVYDVQLLSHNGKEARIGIGDQWTGWIYISDLYLANQPAP | -0.102 |
| HMTSAPHHIAAVLRDAIYRGVLEEGGPLHQARIAQSLGVSPIPLREALRLLETEGLVEFRGYRGAFVT | -0.492 |
| HMNEMIFNQKKIGQFFMNPETNSPMIYPLELGHKMKIIELKNGWYNVTDEKTGLNGWVKEEDFGVTKPLDS | -0.205 |
| HMPLDYQELRNISPQAARQAILQILKANKGNVSQTARMLGITRKTVYKAMAKREAGNLDDGSRAPK | -0.554 |
| HMTDVIADMLTRIRNAASSKHQTVDIPSSNLKKEIAKILLEEGYIRDFIEIDDKKQGIIRITL | -0.389 |
| HMGESYGPVRRGETLWSIAEKVKPAGVSTQKELAAIYAANPQAFIRGDINLLKAGAELRLPSPEAL | 0.172 |
| HMSKSKSEIDKDPHFWSSLFQRIGEGESLRKIAKDSKIPKSTLWAWIRNDPQLALRYSEAQQ | 0.064 |
| HMREKPRETFQRIAEKVGQTLRKGPVRVQQMDLLFSESREQVMEVLRAMAESGEIRIQDDTLHWNGHT | 0.311 |
| HMPAPAPDIPYHSRVSVRRADGFYEGTWTNTAPILDYTGRWMVNVSLGGKRVFVPVEEVVVH | -0.862 |
| HMDDLSPEENKVIGAQVREELARRRLSRQHLADKAKISLSTLEKALTGTRPFTLASVVRIEEALQLQLRK | -0.484 |
| HMQGEAMQETVKKLDAFLQDNSVSMSALARALGVSPSLISQFRSGSYKGDSQAIAAKINSYIDNHNKKSK | 0.0765 |
| HMVMNKQEFLKILRDTLQSQLSSRETENHVEYYRTYIEEQMREGKTEIEILDVLGDPRLIARTILET | -0.0725 |
| HMGDPVRVDKFLHDMNVGTRSQIRKLIKEKAVFVNDVVAKSGRVKVDPVVDQVRLGEQVITYQ | -0.115 |
| HMRLYTQDVAVLNRDVIQGEVITSDMVTTVNVHKRTVPTGALNLSEIPGNVAKFNIPASIPITASMVTK | 0.0171 |
| HMREITVEELYELEGIRIVGTIPGISAWVAESGRQMVFLVGQKVKGHDLLEVGESRVVLRKGDSVVNVLL | -0.0622 |
| HMQKKYLAVKEYLLEQINSGAYQPDEPIPPEREMAAMLGVNRMTLRRAVEELMYEGLLIRKKGSGTFLTK | -1.52 |

| Sequence | soluble fraction (log2) |
| --- | --- |
| HMGLSNYEFNSISQTVKEKLEQGPLTLKALVDETAHLFAEDKVVSVVQWLIDQRDLAYDDHGLLQWKG | -0.418 |
| HMQISDAGALLDAVRRVLAENPAQVEQFRAGKEKVMGFLVGQVMRATGGKANPQMLNDVLREELS | -0.0404 |
| HMNNPLLDKVYQLMKQNNITEEEIVRAVAMKGYFPDDMKLGDYPDDFIDGVLIGAWDQIKQFIINNISPFK | 0.0631 |
| HMRIATVTPIEEDQASDRVVAVYNDIKSTKQIDFIPNFWKVIAVNPDLLEQVWGQLKTLMHPEEVG | -0.659 |
| HMSETLESYTTRLKQLEEIADSFQGVDKTFAIQAGREIRVMVVPEQISDDDMILLARDISNQIEENLDY | -0.122 |
| HMISEGDIIKGTVIDVNEEEVILDLKYYAQGVIKAENLSNDPDFLAAGKISVGDEIEATVIKMDDGEGNIE | 0.0355 |
| HMNMGEKIRSLIGQFGVTSEDLKNLSVANLLIRMNQEAGDSKTKGILASLLETVNKAGVGNLTPDALGIK | -0.00161 |
| HMPPDVIENIFKNDANKIIDLYNMAPRGQKETIVEMIKNKRLQGINVDANVLVKLGELTGIDFVN | 0.0803 |
| HMQISDEGELSGIVRKIIDANPQSVADYKAGKKKAIGFLVGQIMIETKGRANPASVNELLIKKLE | -0.0642 |
| HMGMYAEERHQAIASLARKHGRVSVAELAERFNVTSETIRRDLDSLARRGLLTRVHGGAVPVE | 0.0963 |
| HMKLTPKQQQIYDFISSFADEHGYPPSVREIAQAVNLKSPATVHFHLKGLREAGYISQAEGKTRAITI | -0.117 |
| HMTTPDIIVPDVKGMTVAEAQKALEEKGFKVKLEEMTQEGAVPGDVIRIDPVAGTKRKEGAKITLLIARG | 0.161 |
| HMEESTYQWNNFVRDFYASRVSAQYTNKLKVAAILWHHVKNTPQSKIYHDNLVSKYAEEINYFK | -2.51 |
| HMPEDQISYTDLIKQINDGNVEKIKMTVGSTTIKVNLKEQEEPKTAIVPSTQAFIELVQEKVQDGNEITLI | 0.119 |
| HMSHGFFELKTTQKEALIKLLDSHPNFTHTKTEADLTTAFLKLPMDAEQFNKLLFTNGIVLSHLVKRK | -0.668 |
| HMDVSPVRLIREARGLSQVEVAKAAGLSRAAYQNIEVGKTVPRASTMVNIARALGVSMDDLLAPV | -0.251 |
| HMATVHPIRIQGGMTTQQGGKTVWLWVSDEGRLMTEDEIAGESGGTVSSRMVRGVRVLTGTGVIYG | -2.02 |
| HMNNVDIMGRMVYDDQHREVINFGKYKGVLVTEVLKKDPGYFSWIQQGDFPSDMKRIMMAIKLRM | -2.3 |
| HMEWTDIPTHKVPNVVGKSVEEAKKKLSKFTIEYSGTGEKVVAQSPDAGEKLEEGGTVRLLL | 0.203 |
